± gives the standard deviation of the averaged measurements.
Columns and labels:
Saccharomyces cerevisiae [1] = experiment: protein stability index of tFT-peptide fusion in wild type (PSI (0-1 scale)); higher = more stable (slower turnover); conditions: genetic background: wild type
Saccharomyces cerevisiae [2] = experiment: protein stability index of tFT-peptide fusion in deletion strain of DOA10 (PSI (0-1 scale)); higher = more stable (slower turnover)
Method: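 MPS profiling in S. cerevisiae of two library types built from selected 12-aa C-degron peptides (IN1, IN2, LN1, LN3, VN2, R1-R5, W1-W3, Atg1 and Rpa12 C-termini): saturation mutagenesis libraries and C-terminal +1 capping libraries (13 aa). Each peptide is fused to the C-terminus of a sfGFP-mCherry timer, after a GGGS linker. Cells are FACS-sorted into 8 mCherry/sfGFP bins and sequenced. PSI runs from 0 (unstable) to 1 (stable), measured once in wild type and in the das1Δ or doa10Δ background.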

Saccharomyces cerevisiae [3] = experiment: protein stability index of tFT-peptide fusion (C-terminal peptide) (PSI (0-1 scale)); higher = more stable (slower turnover)
Method: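 MPS profiling in S. cerevisiae of the tFT-X12 degron library: putative degron peptides plus stable controls, 12 aa, fused to the C-terminus of a sfGFP-mCherry timer. Cells are FACS-sorted into 8 mCherry/sfGFP bins and deep-sequenced. PSI runs from 0 (unstable) to 1 (stable). Backgrounds are wild type, das1Δ and doa10Δ at 30 °C, and wild type, das1Δ, cdc34-1 and cdc53-1 at 37 °C; 2-3 technical replicates each.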

Saccharomyces cerevisiae [4] = experiment: as above; conditions: genetic background: wild type; temperature: 30 C
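Throughout, for protein stability index of tFT-peptide fusion (C-terminal peptide): PSI is a weighted mean of sequencing reads over stability bins, variants kept only with over 10 reads, mCherry proximal and sfGFP distal, peptide attached via GGGS linker.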
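Throughout, for protein stability index of tFT-peptide fusion in deletion strain of DOA10: PSI per variant is the weighted mean of its sequencing read distribution over the sorted stability bins, counting only variants with over 10 reads summed across bins.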
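Throughout, for protein stability index of tFT-peptide fusion in wild type: PSI derived as read-weighted mean over the 8 sorting bins, only variants exceeding 10 total reads kept, mCherry placed adjacent to the peptide and sfGFP distal.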

Row | Sequence | protein stability index (Saccharomyces cerevisiae [1]) | protein stability index (Saccharomyces cerevisiae [2]) | also measured
1 | CLVSLKILLFFR | 0.189 | 0.282 | 
2 | CLVSLPICLFFR | 0.0838 | 0.593 | 
3 | CLVSLPIILFFR | 0.0727 | 0.575 | 
4 | CLVSLPILAFFR | 0.151 | 0.613 | 
5 | CLVSLPILLFDR | 0.554 | 0.65 | 
6 | CLVSLPILLFFP | 0.495 | 0.588 | 
7 | CLVSLPILLFFY | 0.232 | 0.435 | 
8 | CLVSLPILLLFR | 0.0579 | 0.579 | 
9 | CLVSLPILLYFR | 0.0564 | 0.597 | 
10 | CLVSLPILQFFR | 0.623 | 0.66 | 
11 | CLVSLPTLLFFR | 0.0585 | 0.663 | 
12 | CLVSLPVLLFFR | 0.0558 | 0.614 | 
13 | CLVSLQILLFFR | 0.164 | 0.264 | 
14 | CLVSLVILLFFR | 0.258 | 0.34 | 
15 | CLVSMPILLFFR | 0.0734 | 0.601 | 
16 | CLVSYPILLFFR | 0.0543 | 0.603 | 
17 | CVTRLDAIYFRI | 0.194 | 0.71 | 
18 | DITLPMCPLLLR | 0.39 | 0.655 | 
19 | FLYMCSVGCWFR | 0.351 | 0.563 | 
20 | GLCMCSVGCWFR | 0.256 | 0.608 | 
21 | GLNMCSVGCWFR | 0.264 | 0.673 | 

Row | Sequence | protein stability index (Saccharomyces cerevisiae [1]) | protein stability index (Saccharomyces cerevisiae [2]) | also measured
22 | GLYMCFVGCWFR | 0.233 | 0.402 | 
23 | GLYMCSEGCWFR | 0.619 | 0.706 | 
24 | GLYMCSRGCWFR | 0.436 | 0.677 | 
25 | GLYMCSTGCWFR | 0.37 | 0.684 | 
26 | GLYMCSVGCHFR | 0.621 | 0.663 | 
27 | GLYMCSVGCMFR | 0.524 | 0.636 | 
28 | GLYMCSVGCWFL | 0.506 | 0.598 | 
29 | GLYMCSVGCWFRK | 0.435 | 0.648 | 
30 | GLYMCSVGCWFRT | 0.227 | 0.554 | 
31 | GLYMCSVGCWIR | 0.179 | 0.402 | 
32 | GLYMCSVGCWLR | 0.212 | 0.537 | 
33 | GLYMCSVGCWWR | 0.355 | 0.634 | 
34 | GLYMCSVGKWFR | 0.637 | 0.674 | 
35 | GLYMCSVRCWFR | 0.382 | 0.442 | 
36 | GLYMCSVTCWFR | 0.265 | 0.327 | 
37 | GLYMDSVGCWFR | 0.521 | 0.727 | 
38 | GLYMMSVGCWFR | 0.26 | 0.604 | 
39 | GLYMVSVGCWFR | 0.176 | 0.38 | 
40 | GLYMWSVGCWFR | 0.278 | 0.601 | 
41 | GRYMCSVGCWFR | 0.385 | 0.669 | 
42 | ISLRVLLPLYFR | 0.286 | 0.588 | 

Row | Sequence | protein stability index (Saccharomyces cerevisiae [1]) | protein stability index (Saccharomyces cerevisiae [2]) | also measured
43 | KSLRVLLPLYFR | 0.288 | 0.654 | 
44 | QITLPMCPLLLR | 0.288 | 0.645 | 
45 | QVTRLDAIYFRI | 0.346 | 0.693 | 
46 | RLVSLPILLFFR | 0.0755 | 0.614 | 
47 | RPLRVLLPLYFR | 0.355 | 0.666 | 
48 | RRTRLDAIYFRI | 0.422 | 0.599 | 
49 | RSLRILLPLYFR | 0.253 | 0.655 | 
50 | RSLRVDLPLYFR | 0.203 | 0.69 | 
51 | RSLRVLEPLYFR | 0.412 | 0.69 | 
52 | RSLRVLLPLDFR | 0.666 | 0.723 | 
53 | RSLRVLLPLIFR | 0.375 | 0.671 | 
54 | RSLRVLLPLYFR | 0.289 | 0.66 | protein stability index (Saccharomyces cerevisiae [3]; genetic background: cdc34-1, temperature: 37 C): 0.082 ± 0.034; protein stability index (Saccharomyces cerevisiae [3]; genetic background: cdc53-1, temperature: 37 C): 0.0762 ± 0.025; protein stability index (Saccharomyces cerevisiae [3]; genetic background: das1 deletion, temperature: 30 C): 0.234 ± 0.029; protein stability index (Saccharomyces cerevisiae [3]; genetic background: das1 deletion, temperature: 37 C): 0.271 ± 0.004; protein stability index (Saccharomyces cerevisiae [3]; genetic background: doa10 deletion, temperature: 30 C): 0.66 ± 0.029; protein stability index (Saccharomyces cerevisiae [3]; genetic background: wild type, temperature: 30 C): 0.234 ± 0.022; protein stability index (Saccharomyces cerevisiae [3]; genetic background: wild type, temperature: 37 C): 0.266 ± 0.043; protein stability index (Saccharomyces cerevisiae [4]): 0.3478 ± 0.0013
55 | RSLRVLLPLYFRE | 0.356 | 0.703 | 
56 | RSLRVLLPLYFRP | 0.291 | 0.638 | 
57 | RSLRVLLPLYHR | 0.626 | 0.682 | 
58 | RSLRVLLPLYLR | 0.29 | 0.671 | 
59 | RSLRVLLPLYSR | 0.609 | 0.642 | 
60 | RSLRVLLPTYFR | 0.569 | 0.664 | 
61 | RSLVVLLPLYFR | 0.257 | 0.634 | 
62 | RVERLDAIYFRI | 0.491 | 0.682 | 
63 | RVLRLDAIYFRI | 0.376 | 0.666 | 

Row | Sequence | protein stability index (Saccharomyces cerevisiae [1]) | protein stability index (Saccharomyces cerevisiae [2]) | also measured
64 | RVSRLDAIYFRI | 0.445 | 0.671 | 
65 | RVTFLDAIYFRI | 0.438 | 0.621 | 
66 | RVTGLDAIYFRI | 0.534 | 0.683 | 
67 | RVTRLDAIFFRI | 0.364 | 0.712 | 
68 | RVTRLDAIPFRI | 0.69 | 0.724 | 
69 | RVTRLDAIQFRI | 0.658 | 0.698 | 
70 | RVTRLDAIYARI | 0.684 | 0.724 | 
71 | RVTRLDAIYFLI | 0.0749 | 0.119 | 
72 | RVTRLDAIYFRF | 0.415 | 0.718 | 
73 | RVTRLDAIYFRIK | 0.615 | 0.694 | 
74 | RVTRLDAIYFRIS | 0.206 | 0.271 | 
75 | RVTRLDAIYFRIT | 0.16 | 0.243 | 
76 | RVTRLDAIYFSI | 0.629 | 0.713 | 
77 | RVTRLDAIYNRI | 0.697 | 0.738 | 
78 | RVTRLDMIYFRI | 0.236 | 0.658 | 
79 | RVTRLDQIYFRI | 0.403 | 0.696 | 
80 | RVTRLDRIYFRI | 0.243 | 0.566 | 
81 | RVTRMDAIYFRI | 0.365 | 0.683 | 
82 | TLVSLPILLFFR | 0.0732 | 0.613 | 
83 | VLYMCSVGCWFR | 0.311 | 0.521 | 
84 | WITLPMCPLLLR | 0.31 | 0.606 | 

— the supplement of paper PMC10724198
